In patent US20140274782A1, “AFFINITY REAGENTS AND METHODS FOR DETECTION, PURIFICATION, AND PROTEOMIC ANALYSIS OF METHYLATED PROTEINS” (The Board of Trustees of the Leland Stanford Junior …, priority 2013, published 2014):

Key:
[1] = target: T1, G9a and GLP (Homo sapiens, UniProt Q96KQ7+Q9H9B1); test: Triple SILAC pull-down after UNC0638 treatment of 293T cells, DMSO/UNC0638 ratio of protein captured by 3×MBT; format: cell-based; design: endogenous in cells; host or cells: HEK 293T; details: for Relative to UNC0638 UNC Heavy: UNC0638 in heavy SILAC media; for Relative to UNC0638 UNC Light: UNC0638 in light SILAC media; for Relative to UNC0638 Average: average of UNC Light and UNC Heavy experiments;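 for all read-outs here: mass spectrometry (Q-Exactive) SILAC quantitation, DMSO/UNC0638 ratio computed after subtracting 3×MBTD355N mutant pull-down background, only proteins with at least twofold 3×MBT over mutant signal considered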
T1 sequence (Q96KQ7 2-1210 limits assumed): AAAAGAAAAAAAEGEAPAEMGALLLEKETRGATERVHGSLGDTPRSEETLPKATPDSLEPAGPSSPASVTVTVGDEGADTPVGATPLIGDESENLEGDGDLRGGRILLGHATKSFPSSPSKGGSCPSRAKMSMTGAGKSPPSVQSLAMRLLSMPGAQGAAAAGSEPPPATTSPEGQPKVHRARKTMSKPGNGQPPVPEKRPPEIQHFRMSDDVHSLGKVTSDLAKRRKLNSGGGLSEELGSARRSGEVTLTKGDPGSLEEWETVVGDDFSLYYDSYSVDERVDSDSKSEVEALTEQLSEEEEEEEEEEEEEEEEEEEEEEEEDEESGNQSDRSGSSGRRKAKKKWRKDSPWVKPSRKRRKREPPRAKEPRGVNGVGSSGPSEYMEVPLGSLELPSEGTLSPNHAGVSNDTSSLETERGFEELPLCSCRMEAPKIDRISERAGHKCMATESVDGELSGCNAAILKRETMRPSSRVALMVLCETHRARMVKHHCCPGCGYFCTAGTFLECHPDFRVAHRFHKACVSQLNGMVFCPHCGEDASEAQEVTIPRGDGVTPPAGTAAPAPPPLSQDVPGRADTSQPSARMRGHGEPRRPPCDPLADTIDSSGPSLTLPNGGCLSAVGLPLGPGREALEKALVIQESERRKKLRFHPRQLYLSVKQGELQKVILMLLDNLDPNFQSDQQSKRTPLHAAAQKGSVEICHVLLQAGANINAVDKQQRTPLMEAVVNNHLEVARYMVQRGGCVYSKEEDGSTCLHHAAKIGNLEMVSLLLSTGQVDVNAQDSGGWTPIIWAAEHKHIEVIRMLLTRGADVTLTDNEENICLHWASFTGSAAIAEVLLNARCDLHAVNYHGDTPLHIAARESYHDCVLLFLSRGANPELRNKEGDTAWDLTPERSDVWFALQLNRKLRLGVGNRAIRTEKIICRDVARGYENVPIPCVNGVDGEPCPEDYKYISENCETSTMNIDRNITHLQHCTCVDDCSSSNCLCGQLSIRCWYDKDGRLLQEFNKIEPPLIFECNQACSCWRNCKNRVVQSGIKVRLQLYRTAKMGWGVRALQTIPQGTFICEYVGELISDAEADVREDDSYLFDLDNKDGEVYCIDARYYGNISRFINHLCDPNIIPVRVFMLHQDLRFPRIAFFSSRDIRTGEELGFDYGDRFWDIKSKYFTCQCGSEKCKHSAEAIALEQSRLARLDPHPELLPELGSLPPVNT
T1 sequence (Q9H9B1 2-1298 limits assumed): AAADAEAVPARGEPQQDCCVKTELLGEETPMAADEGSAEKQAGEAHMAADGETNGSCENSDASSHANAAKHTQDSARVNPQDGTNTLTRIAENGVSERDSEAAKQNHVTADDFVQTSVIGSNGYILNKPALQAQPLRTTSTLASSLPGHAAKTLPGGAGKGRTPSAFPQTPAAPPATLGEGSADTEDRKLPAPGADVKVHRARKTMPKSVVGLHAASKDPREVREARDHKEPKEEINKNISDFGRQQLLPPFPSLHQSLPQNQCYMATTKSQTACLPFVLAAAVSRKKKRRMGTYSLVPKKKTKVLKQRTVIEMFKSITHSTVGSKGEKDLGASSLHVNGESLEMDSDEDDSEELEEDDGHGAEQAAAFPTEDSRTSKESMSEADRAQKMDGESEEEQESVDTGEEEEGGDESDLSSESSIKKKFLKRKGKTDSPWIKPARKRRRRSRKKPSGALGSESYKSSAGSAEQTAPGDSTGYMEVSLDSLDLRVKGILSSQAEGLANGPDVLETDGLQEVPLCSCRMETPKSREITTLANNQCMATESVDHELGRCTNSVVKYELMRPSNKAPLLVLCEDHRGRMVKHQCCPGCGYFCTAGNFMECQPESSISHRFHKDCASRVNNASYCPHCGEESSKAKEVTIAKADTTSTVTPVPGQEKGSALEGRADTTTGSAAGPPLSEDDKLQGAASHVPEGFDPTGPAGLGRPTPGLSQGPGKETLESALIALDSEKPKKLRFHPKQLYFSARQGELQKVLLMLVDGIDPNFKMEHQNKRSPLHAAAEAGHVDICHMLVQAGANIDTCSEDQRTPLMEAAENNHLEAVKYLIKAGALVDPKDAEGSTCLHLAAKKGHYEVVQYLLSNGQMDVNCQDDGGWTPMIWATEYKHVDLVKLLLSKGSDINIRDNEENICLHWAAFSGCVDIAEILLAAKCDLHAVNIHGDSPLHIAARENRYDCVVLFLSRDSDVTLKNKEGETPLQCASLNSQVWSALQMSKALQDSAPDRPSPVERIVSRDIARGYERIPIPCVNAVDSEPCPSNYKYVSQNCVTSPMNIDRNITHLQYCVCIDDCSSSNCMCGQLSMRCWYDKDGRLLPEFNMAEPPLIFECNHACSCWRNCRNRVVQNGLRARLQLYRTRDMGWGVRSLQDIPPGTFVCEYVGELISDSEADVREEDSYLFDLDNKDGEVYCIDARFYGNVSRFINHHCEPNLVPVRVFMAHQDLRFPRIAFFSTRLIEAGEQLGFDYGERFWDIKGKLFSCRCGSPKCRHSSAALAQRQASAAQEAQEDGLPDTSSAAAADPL

[2] = system: 3×MBT domain of L3MBTL1; test: Triple SILAC pull-down, 3xMBT/3xMBTD355N ratio (cytoplasmic, nuclear and chromatin fractions of 293T cells); format: binding, human; details: for 3xMBT/D355N UNC Heavy: experiment with UNC0638 in heavy SILAC media; for 3xMBT/D355N UNC Light: experiment with UNC0638 in light SILAC media;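 for all read-outs here: proteins quantified with MaxQuant, requiring at least two unique peptides and quantification in both label directions, normalized to the mean of proteins from a digested loading control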
[3] = SILAC ratio DMSO relative to UNC0638, pull-down with 3xMBT, all values in log base 2
[4] = SILAC ratio 3xMBT vs 3xMBTD355N pull-down, 293T cells, all values in log base 2
[5] = SILAC ratio DMSO/UNC0638 of protein pulled down with 3xMBT
[6] = SILAC ratio, pull-down 3xMBT vs 3xMBTD355N

B1: CSRP2 (protein, UniProt Q16527 1-193, looked up)
Cysteine and glycine-rich …: MPVWGGGNKCGACGRTVYHAEEVQCDGRSFHRCCFLCMVCRKNLDSTTVAIHDEEIYCKSCYGKKYGPKGYGYGQGAGTLNMDRGERLGIKPESVQPHRPTTNPNTSKFAQKYGGAEKCSRCGDSVYAAEKIIGAGKPWHKNCFRCAKCGKSLESTTLTEKEGEIYCKGCYAKNFGPKGFGYGQGAGALVHAQ
Relative to UNC0638 UNC Heavy [1, 3]: −0.58 log base 2 | Relative to UNC0638 UNC Light [1, 3]: −0.49 log base 2 | Relative to UNC0638 Average ([1]; all values in log base 2): −0.54 log base 2 | 3xMBT/D355N UNC Heavy [2, 4]: 1.27 log base 2 | 3xMBT/D355N UNC Light [2, 4]: 1.96 log base 2

B2: CTNND1 (protein, UniProt O60716 1-968, looked up)
Catenin delta-1: MDDSEVESTASILASVKEQEAQFEKLTRALEEERRHVSAQLERVRVSPQDANPLMANGTLTRRHQNGRFVGDADLERQKFSDLKLNGPQDHSHLLYSTIPRMQEPGQIVETYTEEDPEGAMSVVSVETSDDGTTRRTETTVKKVVKTVTTRTVQPVAMGPDGLPVDASSVSNNYIQTLGRDFRKNGNGGPGPYVGQAGTATLPRNFHYPPDGYSRHYEDGYPGGSDNYGSLSRVTRIEERYRPSMEGYRAPSRQDVYGPQPQVRVGGSSVDLHRFHPEPYGLEDDQRSMGYDDLDYGMMSDYGTARRTGTPSDPRRRLRSYEDMIGEEVPSDQYYWAPLAQHERGSLASLDSLRKGGPPPPNWRQPELPEVIAMLGFRLDAVKSNAAAYLQHLCYRNDKVKTDVRKLKGIPVLVGLLDHPKKEVHLGACGALKNISFGRDQDNKIAIKNCDGVPALVRLLRKARDMDLTEVITGTLWNLSSHDSIKMEIVDHALHALTDEVIIPHSGWEREPNEDCKPRHIEWESVLTNTAGCLRNVSSERSEARRKLRECDGLVDALIFIVQAEIGQKDSDSKLVENCVCLLRNLSYQVHREIPQAERYQEAAPNVANNTGPHAASCFGAKKGKDEWFSRGKKPIEDPANDTVDFPKRTSPARGYELLFQPEVVRIYISLLKESKTPAILEASAGAIQNLCAGRWTYGRYIRSALRQEKALSAIADLLTNEHERVVKAASGALRNLAVDARNKELIGKHAIPNLVKNLPGGQQNSSWNFSEDTVISILNTINEVIAENLEAAKKLRETQGIEKLVLINKSGNRSEKEVRAAALVLQTIWGYKELRKPLEKEGWKKSDFQVNLNNASRSQSSHSYDDSTLPLIDRNQKSDKKPDREEIQMSNMGSNTKSLDNNYSTPNERGDHNRTLDRSGDLGDMEPLKGTTPLMQDEGQESLEEELDVLVLDDEGGQVSYPSMQKI
Relative to UNC0638 UNC Light [1, 3]: −0.49 log base 2 | Relative to UNC0638 Average ([1]; all values in log base 2): −0.49 log base 2 | 3xMBT/D355N UNC Heavy [2, 4]: 0.67 log base 2 | 3xMBT/D355N UNC Light [2, 4]: 2.07 log base 2

B3: DDX46 (protein, UniProt Q7L014 2-1031, looked up)
Probable ATP-dependent RNA …: GRESRHYRKRSASRGRSGSRSRSRSPSDKRSKRGDDRRSRSRDRDRRRERSRSRDKRRSRSRDRKRLRRSRSRERDRSRERRRSRSRDRRRSRSRSRGRRSRSSSPGNKSKKTENRSRSKEKTDGGESSKEKKKDKDDKEDEKEKDAGNFDQNKLEEEMRKRKERVEKWREEQRKKAMENIGELKKEIEEMKQGKKWSLEDDDDDEDDPAEAEKEGNEMEGEELDPLDAYMEEVKEEVKKFNMRSVKGGGGNEKKSGPTVTKVVTVVTTKKAVVDSDKKKGELMENDQDAMEYSSEEEEVDLQTALTGYQTKQRKLLEPVDHGKIEYEPFRKNFYVEVPELAKMSQEEVNVFRLEMEGITVKGKGCPKPIKSWVQCGISMKILNSLKKHGYEKPTPIQTQAIPAIMSGRDLIGIAKTGSGKTIAFLLPMFRHIMDQRSLEEGEGPIAVIMTPTRELALQITKECKKFSKTLGLRVVCVYGGTGISEQIAELKRGAEIIVCTPGRMIDMLAANSGRVTNLRRVTYVVLDEADRMFDMGFEPQVMRIVDNVRPDRQTVMFSATFPRAMEALARRILSKPIEVQVGGRSVVCSDVEQQVIVIEEEKKFLKLLELLGHYQESGSVIIFVDKQEHADGLLKDLMRASYPCMSLHGGIDQYDRDSIINDFKNGTCKLLVATSVAARGLDVKHLILVVNYSCPNHYEDYVHRAGRTGRAGNKGYAYTFITEDQARYAGDIIKALELSGTAVPPDLEKLWSDFKDQQKAEGKIIKKSSGFSGKGFKFDETEQALANERKKLQKAALGLQDSDDEDAAVDIDEQIESMFNSKKRVKDMAAPGTSSVPAPTAGNAEKLEIAKRLALRINAQKNLGIESQDVMQQATNAILRGGTILAPTVSAKTIAEQLAEKINAKLNYVPLEKQEEERQDGGQNESFKRYEEELEINDFPQTARWKVTSKEALQRISEYSEAAITIRGTYFPPGKEPKEGERKIYLAIESANELAVQKAKAEITRLIKEELIRLQNSYQPTNKGRYKVL
Relative to UNC0638 UNC Heavy [1, 5]: 0.53 log base 2 | Relative to UNC0638 UNC Light [1, 5]: 0.33 log base 2 | Relative to UNC0638 Average [1]: 0.43 log base 2 | Candidate G9a/GLP target ([1]; reduced association with 3xMBT after UNC0638 treatment): ✓ | 3xMBT/D355N UNC Heavy [2, 6]: 2.10 log base 2 | 3xMBT/D355N UNC Light [2, 6]: 2.67 log base 2
